Reference: the supplement of paper PMC10201428
± gives the standard deviation of the averaged measurements.

B1: library; a variant is named by its letters at N, in order (parent)
chain: AATGTTGTTGATGCAACCATAAAGTGATATTTAATAATTATTTATAATCAGCAACTTAACCACAAAACAACCATATATTGATATNTCACAAAACAACCATAANTTGATATTTTTGTGAATCGAGTATTTCAGCAAAACTACTGCAGTAAGAA

Key:
[1] = variants of: B1; assay: relative integration efficiency (T-LR orientation) vs wild-type transposon end (log2 (normalized fold change)); transposon end mutated: left end; higher = more efficient transposition; details: with VchCAST RNA-guided transposition machinery (E. coli BL21(DE3) host, lacZ target)
In short: (§1)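 Co-transformation of E. coli BL21(DE3) combined a pUC57 mini-transposon donor, holding barcoded pools of 1549 left-end or 1849 right-end variants, with a T7-driven plasmid encoding a CRISPR array, tniQ-cas8-cas7-cas6 and tnsA-tnsB-tnsC. After plating with 0.1 mM IPTG at 37°C for 18 h, input plasmids and genomic integration junctions were PCR-amplified and Illumina-sequenced across two biological output replicates, with four reference barcodes. Relative integration efficiency is the normalised, log-transformed output/input barcode fold change.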

[2] = variants of: B1; assay: relative integration efficiency (T-RL orientation) vs wild-type transposon end (log2 (normalized fold change)); transposon end mutated: left end; higher = more efficient transposition; details: with VchCAST RNA-guided transposition machinery (E. coli BL21(DE3) host, lacZ target)
In short: as §1

| Variant | relative integration efficiency (log2) [1] | relative integration efficiency (log2) [2] |
| --- | --- | --- |
| CG C17G C71G C97G | -1.57 ± 1 | -1.28 ± 0.76 |
| CG G10T | -1.38 ± 0.3 | -0.454 ± 0.26 |
| CG G10C | -1.66 ± 0.034 | -0.357 ± 0.19 |
| CG G10A | -0.534 ± 0.039 | -0.083 ± 0.089 |
| CG C87A A88C | 0.256 ± 0.18 | -0.00605 ± 0.14 |
| CG G26T A27C T28G A29C | -1.37 ± 0.4 | -1.9 ± 1.2 |
| CG C52A A53C A54C C55A | 0.277 ± 0.23 | 0.0708 ± 0.21 |
| CG C17G C18G A19T T20A | -1.28 ± 0.64 | -1.56 ± 0.94 |
| CG C87G | 0.0991 ± 0.48 | -0.138 ± 0.019 |
| CG C87A | -0.42 ± 0.76 | -0.276 ± 0.053 |
| CG C87T | -0.29 ± 0.12 | -0.0232 ± 0.071 |
| CG G4T T5G | -0.37 ± 0.2 | -0.366 ± 0.035 |
| CG A123C G124T T125G | -0.277 ± 0.038 | -0.171 ± 0.067 |
| CG C61A | 0.321 ± 0.14 | 0.0593 ± 0.091 |
| CG C61T | 0.151 ± 0.41 | -0.122 ± 0.029 |
| CG C61G | -0.0835 ± 0.46 | -0.191 ± 0.019 |
| CG G7C T8A T9A G10C | < -10 | -6.612 ± 0.065 |
| CG C94A | -0.54 ± 0.48 | -0.268 ± 0.25 |
| CG C94G | -1.16 ± 0.81 | -0.958 ± 0.57 |
| CG C94T | -0.715 ± 0.59 | -0.669 ± 0.41 |
| CG C61G A62T C63G A64T | 0.0811 ± 0.61 | -0.0813 ± 0.26 |
| CG G24T T25G G26T A27C | -2.96 ± 1.7 | -2.31 ± 0.84 |
| CG G117C A118T | 0.236 ± 0.11 | 0.235 ± 0.026 |
| CG G13A T30A T31C T32A A77C T86G | -0.338 ± 0.55 | -0.517 ± 0.16 |

| Variant | relative integration efficiency (log2) [1] | relative integration efficiency (log2) [2] |
| --- | --- | --- |
| CG G117T A118C A119C T120G C121A G122T A123C G124T T125G | 0.16 ± 0.029 | 0.0955 ± 0.074 |
| CG A119T | 0.893 ± 0.42 | 0.51 ± 0.29 |
| CG A119G | 0.273 ± 0.044 | 0.0234 ± 0.071 |
| CG C18A A19C | -1.46 ± 0.83 | -1.68 ± 0.79 |
| CG T3A G4C | -0.231 ± 0.33 | 0.0698 ± 0.073 |
| CG G80C A81T T82A A83T | -2 ± 1.1 | -1.88 ± 0.77 |
| CG G10T A11C T12G G13T | -4.3 ± 0.89 | -1.43 ± 0.49 |
| CG G13T C14A | -1.46 ± 1.2 | -0.416 ± 0.31 |
| CG C94A A95C | -0.623 ± 0.98 | -0.474 ± 0.4 |
| CG G106T A107C T108G A109C | -2.4 ± 0.46 | -2.01 ± 0.81 |
| CG G117T A118C A119C T120G | 0.0571 ± 0.28 | 0.0586 ± 0.085 |
| CG C14A C68A C94A | -1.29 ± 1.1 | -0.864 ± 0.51 |
| CG G26C A27T | -3.33 ± 1.1 | -2.12 ± 0.85 |
| CG C18T | 0.181 ± 0.51 | 0.16 ± 0.08 |
| CG C18A | 0.107 ± 0.17 | -0.181 ± 0.016 |
| CG C18G | 0.0813 ± 0.047 | 0.259 ± 0.083 |
| CG G115T T116G | 0.0607 ± 0.61 | 0.243 ± 0.033 |
| CG C18A A19C T20G A21C | -2.8 ± 0.18 | -3.18 ± 0.65 |
| CG C49G A50T | -0.94 ± 0.92 | -0.509 ± 0.62 |
| CG G24C T78A T104A | -0.403 ± 0.24 | -0.396 ± 0.19 |
| CG C63A | 0.438 ± 0.02 | 0.237 ± 0.012 |
| CG C63G | 0.324 ± 0.23 | 0.223 ± 0.039 |
| CG C63T | 0.266 ± 0.018 | 0.0804 ± 0.061 |
| CG C89A A90C | 0.0275 ± 0.49 | -0.181 ± 0.15 |

| Variant | relative integration efficiency (log2) [1] | relative integration efficiency (log2) [2] |
| --- | --- | --- |
| CG C98G A99T | -1.62 ± 0.4 | -1.51 ± 0.56 |
| CG C72G A73T T74A A75T | -1.75 ± 0.9 | -1.77 ± 0.81 |
| CG C68G A69T | -0.877 ± 0.31 | -1.02 ± 0.41 |
| CG C121A A123G G124A T129C G132A A134C A135T A136T A137C C138A C141G G143T C144T | 0.708 ± 0.024 | 0.721 ± 0.23 |
| TG G24A T30A T76A A77G C87T | 0.724 ± 0.54 | 0.0845 ± 0.24 |
| CG C18A C72A C98A | -1.73 ± 0.24 | -1.91 ± 0.81 |
| CG G117T A118C | 0.251 ± 0.35 | 0.0866 ± 0.029 |
| CG C17A C18A A19C T20G | -3.01 ± 0.42 | -2.69 ± 0.85 |
| CG G13C C14G A15T A16T | -1.69 ± 1.2 | -1.03 ± 0.47 |
| CG A119T T120A | -0.0736 ± 0.29 | -0.226 ± 0.056 |
| CG C14G A15T A16T C17G | -1.31 ± 0.38 | -1.26 ± 0.49 |
| CG T5G | 0.0272 ± 0.098 | 0.0254 ± 0.14 |
| CG T5C | -0.291 ± 0.23 | -0.319 ± 0.008 |
| CG T5A | -0.149 ± 0.06 | -0.22 ± 0.057 |
| CG C98G A99T T100A A101T | -1.8 ± 0.21 | -2 ± 0.73 |
| CG G124T T125G | -0.377 ± 0.42 | -0.329 ± 0.048 |
| CG G10C A11T | < -10 | 0.833 ± 0.19 |
| CG C72G | -0.262 ± 0.52 | -0.201 ± 0.43 |
| CG C72T | -0.0498 ± 0.25 | -0.0527 ± 0.2 |
| CG C72A | -0.613 ± 1 | -0.492 ± 0.48 |
| CG C68G | -0.736 ± 0.69 | -0.831 ± 0.36 |
| CG C68A | -0.255 ± 0.47 | -0.433 ± 0.32 |
| CG C68T | -1.08 ± 0.81 | -0.627 ± 0.41 |
| CG C63G A64T | 0.148 ± 0.19 | 0.1041 ± 0.00033 |

| Variant | relative integration efficiency (log2) [1] | relative integration efficiency (log2) [2] |
| --- | --- | --- |
| CG G106T A107C | -1.19 ± 0.39 | -1.42 ± 0.84 |
| CG C49A A50C G51T C52A | -1.02 ± 1.1 | -0.71 ± 0.6 |
| CG C49G | 0.811 ± 0.52 | 0.127 ± 0.33 |
| CG C49A | -0.195 ± 0.69 | 0.178 ± 0.24 |
| CG C49T | -0.164 ± 0.35 | 0.0612 ± 0.15 |
| CG C98A A99C | -1.94 ± 1 | -1.73 ± 0.54 |
| CG C71G | -0.452 ± 0.8 | -0.253 ± 0.4 |
| CG C71A | -0.709 ± 0.022 | -0.461 ± 0.26 |
| CG C71T | -0.49 ± 0.49 | -0.408 ± 0.23 |
| CG G115C T116A | 0.199 ± 0.12 | -0.00924 ± 0.092 |
| CG C14G C68G C94G | -2.2 ± 0.43 | -2.49 ± 1.3 |
| CG C18G C72G C98G | -0.915 ± 0.23 | -0.987 ± 0.56 |
| CG G115T T116G G117T A118C | -0.131 ± 0.19 | -0.00966 ± 0.025 |
| CG C97T | -0.391 ± 0.74 | -0.324 ± 0.13 |
| CG C97G | -0.468 ± 0.14 | -0.455 ± 0.23 |
| CG C97A | -0.467 ± 1.2 | -0.235 ± 0.37 |
| CG C121A G122T A123C G124T T125G | 0.905 ± 0.042 | 0.666 ± 0.12 |
| CG C61G A62T | -0.236 ± 0.51 | -0.362 ± 0.074 |
| CG C17A C71A C97A | -0.871 ± 0.35 | -1.21 ± 0.59 |
| CG C52G A53T | 0.253 ± 0.28 | 0.138 ± 0.048 |
| CG G24T T25G | -0.649 ± 0.2 | -0.561 ± 0.34 |
| CG C60G | 0.358 ± 0.26 | -0.0988 ± 0.017 |
| CG C60T | 0.161 ± 0.34 | -0.00379 ± 0.0024 |
| CG C60A | 0.503 ± 0.15 | 0.0973 ± 0.034 |

| Variant | relative integration efficiency (log2) [1] | relative integration efficiency (log2) [2] |
| --- | --- | --- |
| CG C68A A69C | -0.147 ± 0.86 | -0.266 ± 0.23 |
| CG C49A A50C | -0.934 ± 0.45 | -0.598 ± 0.47 |
| CG G24T T78G T104G | 0.121 ± 0.35 | -0.352 ± 0.37 |
| TG G24A T30A A70C T76A T86G | 1.23 ± 0.52 | 0.692 ± 0.36 |
| CG C97A C98A | -1.76 ± 0.82 | -1.7 ± 0.77 |
| CG C71G C72G | -1.67 ± 1.9 | -1.32 ± 0.57 |
| CG C72G A73T | -1.6 ± 1.4 | -1.44 ± 0.73 |
| CG C18G A19T | -1.25 ± 0.29 | -1.13 ± 0.5 |
| CG C17A C18A | -1.03 ± 1 | -1.15 ± 0.71 |
| CG G80C A81T | -2.2 ± 1.5 | -2.1 ± 0.85 |
| CG G115T | 0.42 ± 0.24 | 0.238 ± 0.1 |
| CG G115C | 0.709 ± 0.14 | 0.417 ± 0.026 |
| CG G115A | 0.113 ± 0.17 | -0.259 ± 0.26 |
| CG C60A C61A A62C C63A | 0.51 ± 0.29 | 0.406 ± 0.095 |
| CG C49G G51T C52G C55T A58T A59T C60A C61T A62G | -4.34 ± 2.5 | -4.9 ± 0.68 |
| CG C63A A64C A65C A66C | -0.236 ± 0.15 | -0.189 ± 0.012 |
| CG G80T | 0.0932 ± 0.91 | -0.44 ± 0.42 |
| CG G80C | -1.47 ± 0.43 | -2.06 ± 0.66 |
| CG G80A | -0.967 ± 1.4 | -0.773 ± 0.37 |
| CG C72A A73C | -2.02 ± 0.55 | -2.16 ± 0.91 |
